{
  "source": "paper PMC2889927",
  "target": "lactosylceramide-loaded recombinant human CD1d complex (human) (UniProt P15813)",
  "sequence (P15813 20-335, one chain of several)": "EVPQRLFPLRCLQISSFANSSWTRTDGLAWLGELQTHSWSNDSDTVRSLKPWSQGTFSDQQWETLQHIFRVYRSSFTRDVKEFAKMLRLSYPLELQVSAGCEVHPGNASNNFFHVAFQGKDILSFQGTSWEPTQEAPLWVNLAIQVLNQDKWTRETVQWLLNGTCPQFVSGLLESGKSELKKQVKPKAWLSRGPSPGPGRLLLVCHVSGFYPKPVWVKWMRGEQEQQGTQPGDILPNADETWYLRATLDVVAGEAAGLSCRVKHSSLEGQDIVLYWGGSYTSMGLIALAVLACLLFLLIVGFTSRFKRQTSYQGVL",
  "test": "SPR",
  "data": [
    {"substance": "recombinant soluble iNKT TCR 4C1369 (Vα24/Vβ11 heterodimer) (from UniProt A0A0B4J240)", "values": [
      {"measurement": "Kd", "value": 2030, "unit": "nM"}
    ]}
  ]
}
